Test results as given in US7754689B2, “Finger-1 peptide analogs of the TGF-β superfamily” (Wyeth LLC, priority 2006, dated 2010).
No end group written: not given here.

T1: BMP-12 (UniProt Q7Z4P5 322-450, limits assumed)
T1 construct: also called BMP12/GDF7
T1 sequence (looked up): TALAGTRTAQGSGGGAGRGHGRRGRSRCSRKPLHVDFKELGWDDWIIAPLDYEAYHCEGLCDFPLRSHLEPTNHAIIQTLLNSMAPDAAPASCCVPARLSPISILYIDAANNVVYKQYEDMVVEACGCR

B1: BMP2 N-trunc_2 peptide 745 (peptide)
peptide: Ac-VAPPGYHAFYSHGEK
B2: BMP12 N-trun_1S peptide 749 (peptide)
peptide: Ac-ELGWDDWIIAPLDYEAYHSEGLK

The binders below were run against T1, BMP-12 (assay: peptide resin, filter plate; load 6: 1M CHES pH 9.7).
Experimental: (§1) The coupled resins, plus an unconjugated resin for use as a control, were suspended in 16% ethanol, 150 mM NaCl, and 20 mM Tris buffer at pH 7.5 at a 25% v/v ratio (e.g., 25% ethanol, 75% Tris buffer). A Tecan liquid-handling robot was employed to aliquot 200 μL of each slurry into one of eight rows of a 96 well polystyrene filter plate (0.45 μm hydrophilic filters, Whatman catalog number 770-1806). Spinning at 1200 g for 3 min removed the liquid phase, leaving 50 μL of wet resin on the filters. The resins were then equilibrated with the loading buffers listed in Table 6 (K is a coefficient characterizing the strength of protein binding to a particular resin in a particular buffer). […] The resins were loaded by transferring 150 μL from the load plate to the filter plate and then incubating 20 min on a shaking platform to facilitate binding. The filter plate was spun down and the filtrate collected in a 96 well UV plate. The protein concentration in the filtrate, or flow-through, was calculated as $(A280-A320)/1.3$. The filter plate was then washed with 150 μL of 100 mM acetic acid, followed by 150 μL of 4M guanidine-HCl and 50 mM sodium acetate at pH 4.0. The protein concentration was measured in the new filtrate as described above. […] Flow-through and acetic acid elution samples from column 4 of the plate (loaded with MES pH 6) were analyzed on a gel (FIG. 14).

| Binder | Flow-through K | Flow-through conc |
| --- | --- | --- |
| B1 | -1 | 0.626 mg/mL |
| B2 | -1 | 0.653 mg/mL |

Each binder was assayed against T1, BMP-12 (assay: peptide resin, filter plate; load 4: 25 mM MES pH 6.0).
Experimental: as §1

| Binder | 100 mM HAc elution K | 100 mM HAc elution conc | 4M Gnd, 50 mM NaAc pH 4 Strip Conc | Flow-through K | Flow-through conc |
| --- | --- | --- | --- | --- | --- |
| B1 | -1 | 0.104 mg/mL | 0.027 mg/ml | 0 | 0.426 mg/mL |
| B2 | 1 | 0.321 mg/mL | 0.079 mg/ml | 56 | 0.025 mg/mL |

The binders below were run against T1, BMP-12 (assay: peptide resin, filter plate; load 5: 25 mM HEPES pH 7.0).
Experimental: as §1

| Binder | 100 mM HAc elution K | 100 mM HAc elution conc | 4M Gnd, 50 mM NaAc pH 4 Strip Conc | Flow-through K | Flow-through conc |
| --- | --- | --- | --- | --- | --- |
| B1 | 0 | 0.077 mg/mL | 0.021 mg/ml | 1 | 0.397 mg/mL |
| B2 | 1 | 0.28 mg/mL | 0.093 mg/ml | 9 | 0.116 mg/mL |

What follows are binders tested against T1, BMP-12 (assay: peptide resin, filter plate; load 3: 25 mM Na Acetate pH 5.0).
Experimental: as §1

| Binder | 100 mM HAc elution K | 100 mM HAc elution conc | 4M Gnd, 50 mM NaAc pH 4 Strip Conc | Flow-through K | Flow-through conc |
| --- | --- | --- | --- | --- | --- |
| B1 | 0 | 0.073 mg/mL | 0.026 mg/ml | 1 | 0.407 mg/mL |
| B2 | 2 | 0.275 mg/mL | 0.126 mg/ml | 42 | 0.032 mg/mL |

These binders were tested against T1, BMP-12 (assay: peptide resin, filter plate; load 1: 50 mM Acetic Acid, 0.1 M NaCl, pH 2.9).
Experimental: as §1

| Binder | 100 mM HAc elution K | 100 mM HAc elution conc | 4M Gnd, 50 mM NaAc pH 4 Strip Conc | Flow-through K | Flow-through conc |
| --- | --- | --- | --- | --- | --- |
| B1 | 1 | 0.058 mg/mL | 0.024 mg/ml | 1 | 0.397 mg/mL |
| B2 | 6 | 0.098 mg/mL | 0.141 mg/ml | 5 | 0.175 mg/mL |

The binders below were run against T1, BMP-12 (assay: peptide resin, filter plate; load 2: 50 mM Acetic Acid, 0.1 M NaCl, pH 4.0).
Experimental: as §1

| Binder | 100 mM HAc elution K | 100 mM HAc elution conc | 4M Gnd, 50 mM NaAc pH 4 Strip Conc | Flow-through K | Flow-through conc |
| --- | --- | --- | --- | --- | --- |
| B1 | 1 | 0.057 mg/mL | 0.026 mg/ml | 1 | 0.41 mg/mL |
| B2 | 4 | 0.175 mg/mL | 0.196 mg/ml | 26 | 0.05 mg/mL |

Each binder was assayed against T1, BMP-12 (assay: peptide resin, filter plate; load 10: 50 mM Tris, 0.1 M NaCl, 40% MPD, pH 8.0).
Experimental: as §1

| Binder | Flow-through K | Flow-through conc |
| --- | --- | --- |
| B1 | 0 | 0.464 mg/mL |
| B2 | 0 | 0.434 mg/mL |

These binders were tested against T1, BMP-12 (assay: peptide resin, filter plate; load 12: 50 mM Tris, 0.1 M NaCl, 20% MPD, pH 8.0).
Experimental: as §1

| Binder | Flow-through K | Flow-through conc |
| --- | --- | --- |
| B1 | 0 | 0.435 mg/mL |
| B2 | 1 | 0.404 mg/mL |

These binders were tested against T1, BMP-12 (assay: peptide resin, filter plate; load 11: 50 mM Tris, 0.25 M NaCl, 30% MPD, pH 8.0).
Experimental: as §1

| Binder | Flow-through K | Flow-through conc |
| --- | --- | --- |
| B1 | 0 | 0.431 mg/mL |
| B2 | 0 | 0.416 mg/mL |
